Results from paper PMC12046042.

Tests used:
Assay in all cases: SPR
FcγRIIIa-158V = molecular target: FcγRIIIa-158V
FcγRIIb = molecular target: FcγRIIb
FcγRIIa-131H = molecular target: FcγRIIa-131H
[1] = molecular target: FcγRI (CD64) extracellular domain (UniProt P12314)
FcγRIIIa-158F = molecular target: FcγRIIIa-158F
FcγRIIa-131R = molecular target: FcγRIIa-131R

Sequence of FcγRI (CD64) extracellular domain (P12314 16-292): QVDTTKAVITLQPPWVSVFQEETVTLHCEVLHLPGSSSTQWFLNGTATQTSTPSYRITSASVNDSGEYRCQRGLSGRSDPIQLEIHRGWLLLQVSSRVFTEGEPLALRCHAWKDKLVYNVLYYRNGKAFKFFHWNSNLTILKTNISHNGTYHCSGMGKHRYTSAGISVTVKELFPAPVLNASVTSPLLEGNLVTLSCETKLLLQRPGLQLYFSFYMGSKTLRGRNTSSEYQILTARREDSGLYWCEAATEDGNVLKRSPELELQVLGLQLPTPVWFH

Substance | Kd (FcγRIIIa-158V) | Kd (FcγRIIb) | Kd (FcγRIIa-131H) | Kd [1] | Kd (FcγRIIIa-158F) | Kd (FcγRIIa-131R)
Hu IgG4P | 3.1 µM | 1.6 µM | 4.1 µM | 472 pM | 10 µM | 1.6 µM
Hu IgG4PAA | 8.9 µM | > 10 µM | > 10 µM | > 200000 pM | > 10 µM | > 10 µM
Hu IgG1 | 0.2 µM | 4.4 µM | 0.6 µM | 64.3 pM | 1.4 µM | 0.8 µM
